# B1: Dpr10 isoform A (domain or fragment)
# chain: WNEPYFDLTMPRNITSLVGKSAYLGCRVKHLGNKTVAWIRHRDLHILTVGTYTYTTDQRFQTSYHRDIDEWTLQIKWAQQRDAGVYECQISTQPVRSYSVNLNIVDLIDAETSDIMQQYYNDDAFYIAENRVYQSSNDEFAGMFGPIQTVAVPTATILGGPDLYVDKGSTINLTCIIKFSPEPPTHIFWYHQDKVLSEETSGGRLKFKTIKSEETKSILLIYDADLLHSGKYSCYPSNTEIASIRVHVLQGE
# Experiments:
# Assay in all cases: SPR; Biacore T100, CM4 chip; DIPs immobilised by amine coupling (700-900 RU), monomeric Dpr analytes in 3-fold dilution series (0.012 to 9, 27 or 81 µM); 25 °C; 10 mM Tris-HCl pH 7.2, 150 mM NaCl, 1 mM EDTA, 1 mg/mL BSA, 0.01% Tween-20; equilibrium responses fit to a 1:1 model
# [1] = target: DIP-α (Drosophila melanogaster) (UniProt Q9W4R3)
# [2] = target: DIP-β isoform C (Drosophila melanogaster)
# [3] = target: DIP-λ (Drosophila melanogaster)
# Sequence of DIP-λ (Drosophila melanogaster) (main, as listed by the source): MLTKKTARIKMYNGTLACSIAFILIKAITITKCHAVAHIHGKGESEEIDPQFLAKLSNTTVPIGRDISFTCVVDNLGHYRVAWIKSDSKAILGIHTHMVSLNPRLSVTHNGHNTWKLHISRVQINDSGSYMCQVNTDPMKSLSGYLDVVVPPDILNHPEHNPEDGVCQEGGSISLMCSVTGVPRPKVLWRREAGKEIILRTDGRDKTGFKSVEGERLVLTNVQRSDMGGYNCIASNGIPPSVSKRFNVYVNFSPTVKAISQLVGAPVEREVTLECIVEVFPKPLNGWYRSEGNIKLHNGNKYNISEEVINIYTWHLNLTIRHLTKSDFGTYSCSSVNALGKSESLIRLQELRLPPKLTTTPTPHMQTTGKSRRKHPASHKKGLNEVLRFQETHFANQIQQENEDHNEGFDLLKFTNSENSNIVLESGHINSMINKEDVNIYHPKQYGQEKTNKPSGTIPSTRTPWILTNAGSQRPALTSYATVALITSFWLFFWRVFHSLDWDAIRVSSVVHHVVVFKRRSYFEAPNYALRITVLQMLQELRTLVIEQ
# Sequence of DIP-β isoform C (Drosophila melanogaster) (main, as listed by the source): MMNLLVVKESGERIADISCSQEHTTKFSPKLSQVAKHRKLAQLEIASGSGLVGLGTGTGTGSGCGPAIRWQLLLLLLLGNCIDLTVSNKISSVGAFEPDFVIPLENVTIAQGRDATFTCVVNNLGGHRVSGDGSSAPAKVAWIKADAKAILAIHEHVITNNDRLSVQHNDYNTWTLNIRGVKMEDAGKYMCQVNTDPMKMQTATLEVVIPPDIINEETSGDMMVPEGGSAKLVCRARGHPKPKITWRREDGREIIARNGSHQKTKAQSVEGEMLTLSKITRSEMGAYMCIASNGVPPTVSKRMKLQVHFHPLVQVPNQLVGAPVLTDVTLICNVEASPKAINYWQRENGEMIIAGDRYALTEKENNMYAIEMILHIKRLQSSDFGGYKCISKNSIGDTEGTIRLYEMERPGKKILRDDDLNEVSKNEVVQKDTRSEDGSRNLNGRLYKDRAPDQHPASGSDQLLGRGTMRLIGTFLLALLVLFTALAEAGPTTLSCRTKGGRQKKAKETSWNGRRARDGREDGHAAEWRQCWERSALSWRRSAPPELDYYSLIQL
# Sequence of DIP-α (Drosophila melanogaster) (Q9W4R3 entry or part of it): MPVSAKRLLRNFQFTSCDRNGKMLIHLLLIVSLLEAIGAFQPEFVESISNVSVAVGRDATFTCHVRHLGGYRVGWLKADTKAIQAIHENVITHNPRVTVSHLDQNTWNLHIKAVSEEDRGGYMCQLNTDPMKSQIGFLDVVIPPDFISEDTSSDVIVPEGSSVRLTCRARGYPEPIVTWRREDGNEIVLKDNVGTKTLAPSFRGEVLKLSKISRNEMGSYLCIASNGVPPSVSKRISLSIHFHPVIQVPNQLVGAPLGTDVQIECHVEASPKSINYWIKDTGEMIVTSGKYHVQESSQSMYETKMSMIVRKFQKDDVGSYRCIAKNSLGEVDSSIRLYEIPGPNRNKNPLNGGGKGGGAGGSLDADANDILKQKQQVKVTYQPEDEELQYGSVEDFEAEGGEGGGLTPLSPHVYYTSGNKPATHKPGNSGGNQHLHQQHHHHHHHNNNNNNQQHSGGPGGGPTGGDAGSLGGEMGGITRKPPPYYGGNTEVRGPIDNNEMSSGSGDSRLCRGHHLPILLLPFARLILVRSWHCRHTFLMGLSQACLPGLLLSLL
binder,measurement,setting,value
B1,Kd,[1],1.34 µM
same,Kd,[2],84 µM
same,Kd,[3],5.84 µM

# From article PMC12135937
